Measured values from US20240343799A1.
Where a chain is given by its changes, count along the chain named.

B1: polmab (antibody, human IgG1, kappa, V domains shown)
VH: EVQLVESGGGLVQPGGSLRLSCAASGYTFSSYWIEWVRQAPGKGLEWIGEILPGGGDTNYNEIFKGRATFSADTSKNTAYLQMNSLRAEDTAVYYCTRRVPIRLDYWGQGTLVTVSS
VL: DIQLTQSPSSLSASVGDRVTITCKASQSVDYEGDSFLNWYQQKPGKAPKLLIYAASNLESGVPSRFSGSGSGTDFTLTISSLQPEDFATYYCQQSNEDPLTFGQGTKVEIKR
B2: A7v14b (antibody, V domains shown)
VH: EVQLVQSGAEVKKPGASVKVSCKASGYTFTTYYMNWVRQAPGQGLEWIGMIDPSDSETHYNQKFQGRATLTVDTSTSTAYLELSSLRSEDTAVYYCSRSLAFWGQGTLVTVSS
VL: DIVMTQTPLSLPVTPGQPASISCKSSQSLLDSDGKTYLNWLLQKPGQSPQSLIYLVSKLDSGVPDRFSGSGSGTDFTLKISRVEAEDVGVYYCWQGTHFPQTFGQGTKVEIK
B3: hz34F1.14 (antibody, V domains shown)
VH: QVQLVQSGAEVKKPGASVKVSCKASGYSFTTYWMNWVRQAPGQGLTWMGMIDPSDSETHYNHLFKDRVTMTVDKSTSTAYMELSSLRSEDTAVYYCTRAIGYWGQGTLVTVSS
VL: DVVMTQSPLSLPVTLGQPASISCKSSLSLLDSEGKTYLNWFQQRPGQSPRPLISLVSKLDSGVPDRFSGSGSGTDFTLKISRVEAEDVGVYYCWQGTHFPLTFGGGTKVEIK
B4: hz11G10.9.p1 (antibody, V domains shown)
VH: QVQLVQSGAEVKKPGASVKVSCKASGYTFTDYWVNWVRQAPGQGLEWMGMIDPSDSETHYNQMFNDRVTMTVDTSTSTVYMELSSLRSEDTAVYYCTRSNYYWGQGTLVTVSS
VL: B2 VL with P12S, D33E, Q101L, Q105G
B5: hz38D9B3.11 (antibody, V domains shown)
VH: QVQLVQSGSELKKPGASVKVSCKASGYTFTDYSMHWVRQAPGQGLEWMGWINTETGEPSYADDFKGRFVFSLDTSVSTAYLQISSLKAEDTAVYYCYYGPYWGQGTLVTVSS
VL: EIVLTQSPATLSLSPGERATLSCKASQSVDHDVDSYMDWYQQKPGQAPRLLIYSASNLESGIPARFSGSGSGTDFTLTISSLEPEDFAVYYCQQINEYPYTFGGGTKVEIK

The binders below were run against huCD79b-N (human) (UniProt P40259) (assay: BLI (ForteBio)).

B1 was tested, and the Kd was 3.1 nM.

The binders below were run against huCD79b-N (human) (UniProt P40259) (assay: BLI (ForteBio), antibody loaded on sensor, antigen in solution).

Going from B1 to B2, the Kd rises from 3.22 nM to 8.56 nM (2.7-fold).

First: B3
Second: B4
The Kd of the first is 2.4-fold higher: 8.07 nM for the first, 3.4 nM for the second.

B5 was tested, and the Kd was 0.275 nM.
